From patent US20200071424A1 (SHIONOGI, published 2020)
Where two headings read alike, the source gives them in different places.

Key:
[1] = target: baboon EL (baboon); experiment: cell-based or functional assay
[2] = target: human-mouse chimeric EL (construct not specified); experiment: cell-based or functional assay
[3] = target: cynomolgus monkey EL (cynomolgus monkey); experiment: cell-based or functional assay
[4] = target: T1, human [1-157]-mouse chimeric EL (human; mouse, UniProt Q9WVG5 158-500); experiment: ELISA: antibody captured on anti-mouse IgG-Fc plate, EL heparin extract added, detection with biotin anti-C2-tag antibody and HRP-streptavidin, A450
T1 construct: Heparin extract, detected by an anti-C2-tag antibody
T1 sequence: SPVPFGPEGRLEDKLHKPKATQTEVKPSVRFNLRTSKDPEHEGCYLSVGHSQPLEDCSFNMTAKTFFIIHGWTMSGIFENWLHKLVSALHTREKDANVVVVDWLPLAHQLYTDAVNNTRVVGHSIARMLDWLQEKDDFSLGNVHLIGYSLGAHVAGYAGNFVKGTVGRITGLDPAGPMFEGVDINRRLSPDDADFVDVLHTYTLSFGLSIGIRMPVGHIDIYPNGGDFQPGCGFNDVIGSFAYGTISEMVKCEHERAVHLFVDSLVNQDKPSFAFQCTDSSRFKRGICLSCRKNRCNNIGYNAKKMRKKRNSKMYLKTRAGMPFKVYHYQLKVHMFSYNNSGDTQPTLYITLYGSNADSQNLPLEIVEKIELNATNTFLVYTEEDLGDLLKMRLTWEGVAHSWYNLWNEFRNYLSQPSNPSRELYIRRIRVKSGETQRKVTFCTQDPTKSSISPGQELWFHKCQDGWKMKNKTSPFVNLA
Description: (§1) Assay buffer containing 15 μl of anti-EL antibody was added to anti-mouse IgG-Fc antibody-immobilized microtiter plate, and incubated for 2 hr. […] After washing the wells three times with 90 μL of washing buffer, 15 μl of assay buffer containing biotin-labeled anti-C2-tag antibody and HRP-labeled Streptavidin were added to the wells and incubated at room temperature for 1 hr. After washing the wells three times with 90 μL of washing buffer, 15 μL of TMB+—Substrate—Chromogen (DAKO) was added and incubated at room temperature for 30 min and then 15 μL of 0.05 M H2SO₄ was added and absorbance at 450 nm was measured (FIG. 3A to 3K).

[5] = target: T2, mouse EL (mouse, UniProt Q9WVG5 21-500); experiment: as above
T2 construct: Heparin extract
T2 sequence (looked up): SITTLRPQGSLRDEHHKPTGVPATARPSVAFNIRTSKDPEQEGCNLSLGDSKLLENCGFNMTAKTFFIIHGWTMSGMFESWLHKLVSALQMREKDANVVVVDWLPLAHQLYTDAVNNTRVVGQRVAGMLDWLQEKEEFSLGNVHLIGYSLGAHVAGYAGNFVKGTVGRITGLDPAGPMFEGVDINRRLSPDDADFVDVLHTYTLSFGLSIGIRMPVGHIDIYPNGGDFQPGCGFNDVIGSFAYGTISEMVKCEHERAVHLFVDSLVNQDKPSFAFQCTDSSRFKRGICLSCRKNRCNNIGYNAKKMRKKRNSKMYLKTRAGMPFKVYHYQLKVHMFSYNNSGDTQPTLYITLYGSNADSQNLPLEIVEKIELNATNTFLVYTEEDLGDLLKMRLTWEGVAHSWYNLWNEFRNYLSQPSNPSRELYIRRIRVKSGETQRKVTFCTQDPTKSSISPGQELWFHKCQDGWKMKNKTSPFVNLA
Description: as §1

[6] = target: T3, cynomolgus monkey EL (cynomolgus monkey); experiment: as above
T3 construct: Heparin extract; also called cynomolgus EL; Cynomolgus EL
Description: as §1

[7] = target: T4, human [1-305]-mouse chimeric EL (human; mouse, UniProt Q9WVG5 306-500); experiment: Biacore; EL captured by anti-C2-tag Ab; bivalent fit
T4 construct: Heparin extract, captured or detected by an anti-C2-tag antibody; also called human-mouse chimeric EL
T4 sequence: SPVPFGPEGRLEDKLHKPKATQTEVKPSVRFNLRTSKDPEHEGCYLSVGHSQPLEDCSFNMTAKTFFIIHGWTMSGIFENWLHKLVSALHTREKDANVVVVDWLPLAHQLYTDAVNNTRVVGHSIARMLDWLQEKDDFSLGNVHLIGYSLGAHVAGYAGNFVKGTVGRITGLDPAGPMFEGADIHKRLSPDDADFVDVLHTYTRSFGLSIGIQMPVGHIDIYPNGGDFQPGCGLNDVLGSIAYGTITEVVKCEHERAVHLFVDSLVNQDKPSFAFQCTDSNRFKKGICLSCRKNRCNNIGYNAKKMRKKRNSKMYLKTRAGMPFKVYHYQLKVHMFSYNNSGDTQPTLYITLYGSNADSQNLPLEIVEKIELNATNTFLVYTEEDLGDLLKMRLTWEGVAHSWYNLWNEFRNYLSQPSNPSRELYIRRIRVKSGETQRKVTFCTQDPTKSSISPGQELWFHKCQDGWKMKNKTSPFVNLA
Description: (§2) The binding affinities of anti-EL antibodies were measured using Biacore. […] Then, anti-EL antibodies were added and the binding affinities were calculated by bivalent fitting of BIAevaluation software.

[8] = target: T5, baboon EL (baboon); experiment: as above
T5 construct: Heparin extract
Description: as §2

[9] = target: T3, cynomolgus monkey EL; experiment: as above
Description: as §2

[10] = target: T5, baboon EL; experiment: ELISA: antibody captured on anti-mouse IgG-Fc plate, EL heparin extract added, detection with biotin anti-C2-tag antibody and HRP-streptavidin, A450
Description: as §1

[11] = target: T3, cynomolgus monkey EL; experiment: cell-based or functional assay; remark: listed apart in the source
[12] = target: T4, human [1-305]-mouse chimeric EL; experiment: cell-based or functional assay
[13] = target: T4, human [1-305]-mouse chimeric EL; experiment: Biacore; EL captured by anti-C2-tag Ab; bivalent fit; remark: listed apart in the source
Description: The binding affinities of anti-EL antibodies were measured using Biacore. […] Then, anti-EL humanized antibodies were added and the binding affinities were calculated by bivalent fitting of BIAevaluation software.

| Binder | Neutralizing activity IC50 [1] [nM] | Neutralizing activity IC50 [2] [nM] | Neutralizing activity IC50 [3] [nM] | EC50 (read off the curve) [4] [ng/mL] | binding result [5] | EC50 (read off the curve) [6] [ng/mL] | Kd [7] [nM] | koff [7] [s⁻¹] | kon [7] [M⁻¹ s⁻¹] | Kd [8] [nM] | koff [8] [s⁻¹] | kon [8] [M⁻¹ s⁻¹] | Kd [9] [nM] | koff [9] [s⁻¹] | kon [9] [M⁻¹ s⁻¹] | EC50 (read off the curve) [10] [ng/mL] | Neutralizing activity IC50 [12] [nM] | further results |
| --- | --- | --- | --- | --- | --- | --- | --- | --- | --- | --- | --- | --- | --- | --- | --- | --- | --- | --- |
| 14A1 (antibody, mouse IgG1, V domains shown, mouse IgG1 from hybridoma) VH: QIQLVQSGPELKKPGETVKISCKASGYTFTNYGMNWVKQAPGKGLKWMGWINTYSGVPTYADDFKGRFAFSLETSASTAYLQINNFKNEDTATYFCARFSYYGRHYFDYWGQGTALTASS VL: DIVLTQSPASLAVSLGQRATISCKASQSVDYDGDSYMNWYQQKPGQPPKLLIYAASNLKSGIPARFSGSGSGTDFTLNIHPVEEEDAATYYCQQTTDDPPWTFGGGTKLEIK | 2.7 | 5.8 | 3.1 | ~7 | no binding (tested: about 330 ng/mL) | ~20 | 0.5 | 0.0001 | 210000 | 3.3 | 0.00062 | 190000 | 3.9 | 0.00081 | 210000 |  |  |  |
| 2D5 (antibody, mouse IgG2a, V domains shown, mouse IgG2a from hybridoma) VH: QIQLVQSGPELKKPGETVKISCKASGYTFTNYGMNWVKQAPGKGLKWMGWINTYSGVPTYTDDFKGRFAFSLETSASTAFLQINNLKNEDTATYFCARFSYYGRHYFDYWGQGTTLTVSS VL: not shown | 2.9 | 2.7 | 3 | ~8 | no binding (tested: about 330 ng/mL) | ~10 | 1.1 | 9.3e-05 | 85000 | 2.2 | 0.00017 | 77000 | 3.8 | 0.00028 | 74000 | ~20 |  |  |
| 7D4 (antibody, mouse IgG1, V domains shown, mouse IgG1 from hybridoma) VH: QIQLVQSGPELKKPGETVKISCKASGYTFTNYGMNWVKQAPGKDLKWMGWINTYSGVPTYADDFKGRFAFSLETSASTAYLQINNLKNEDTATYFCARFSYYGRHYFDYWGQGTTLTVSS VL: DIVLTQSPASLAVSLGQRATISCKASQSVDYDGDSYMNWYQQKPGQPPQLLIYAASNLGSGIPARFSGSGSGTDFTLNIHPVEEEDAATYYCHQSTDDPPWTFGGGTKLEIK | 2.6 | 3.7 | 2.1 | ~6 | no binding (tested: about 330 ng/mL) | ~10 | 0.97 | 0.00011 | 110000 | 4.5 | 0.00035 | 78000 | 1.9 | 0.00023 | 120000 | ~9 |  |  |
| h53A11-S4 (antibody, V domains shown) VH: QVQLVQSGAEVKKPGASVKVSCKASGYTFTDYTMHWVRQAPGQRLEWMGGINPYYGGTTYNEKFKDRVTITRDTSASTAYMELSSLRSEDTAVYYCARGDYYGGSYNYWGQGTTVTVSS VL: EIVMTQSPATLSVSPGERATLSCRASQDISNSLHWYQQKPGQAPRLLIKYASQSISGIPARFSGSGSGTEFTLTISSLQSEDFAVYYCQQSNSWPYTFGQGTKLEIK |  |  |  |  |  |  |  |  |  |  |  |  |  |  |  |  |  | Neutralizing activity IC50 [11]: 12 nM |

The next lines start with results.

| Neutralizing activity IC50 [1] [nM] | Neutralizing activity IC50 [2] [nM] | Neutralizing activity IC50 [3] [nM] | EC50 (read off the curve) [4] [ng/mL] | binding result [5] | EC50 (read off the curve) [6] [ng/mL] | Kd [7] [nM] | koff [7] [s⁻¹] | kon [7] [M⁻¹ s⁻¹] | Kd [8] [nM] | koff [8] [s⁻¹] | kon [8] [M⁻¹ s⁻¹] | Kd [9] [nM] | koff [9] [s⁻¹] | kon [9] [M⁻¹ s⁻¹] | EC50 (read off the curve) [10] [ng/mL] | Neutralizing activity IC50 [12] [nM] | Binder | further results |
| --- | --- | --- | --- | --- | --- | --- | --- | --- | --- | --- | --- | --- | --- | --- | --- | --- | --- | --- |
| 2 | 1.1 | 1.5 | ~4 | no binding (tested: about 330 ng/mL) | ~5 | 0.73 | 0.00014 | 190000 | 1.2 | 0.00042 | 350000 | 1.7 | 0.00044 | 250000 | ~10 | 1.1 | 55A1 (antibody, mouse IgG2a, V domains shown, mouse IgG2a from hybridoma; also called 55A1 (mouse mAb)) VH: QIHLVQSGPELKKPGETVKISCKASGYTFTNYGMNWVKQAPGKGLKWMGWINTYSGVPTYAGDFKGRFAFSLETSASTAYLQINNLKNEDTATYFCARRGYYGRRYFDVWGTGTTVTVSS VL: DIVLTQSPASLAVSLGQRATISCKASQSVDYDVDSYMHWYQQKPGQPPKLLIYAASNLASGIPARFSGGGSGTDFTLNIHPVEEEDVATYYCQQTIEDPPTFGGGTKLEIK | Neutralizing activity IC50 [11]: 1.3 nM |
|  |  |  |  |  |  |  |  |  |  |  |  |  |  |  |  | 2.4 | h55A1-F4 (antibody, V domains shown, humanized) VH: QVQLVQSGAEVKKPGASVKVSCKASGYTFTNYGMNWVRQAPGQGLEWMGWINTYSGVPTYAGDFKGRVTMTTDTSTSTAYMELRSLRSDDTAVYYCARRGYYGRRYFDVWGKGTTVTVSS VL: EIVLTQSPGTLSLSPGERATLSCKASQSVDYDVDSYMHWYQQKPGQAPRLLIYAASNLASGIPDRFSGSGSGTDFTLTISRLEPEDFAVYYCQQTIEDPPTFGGGTKVEIK | Kd [13]: 0.22 nM; koff [13]: 3e-05 s⁻¹; kon [13]: 140000 M⁻¹ s⁻¹ |
|  |  |  |  |  |  |  |  |  |  |  |  |  |  |  |  | 2.3 | h55A1-F6 (antibody, V domains shown, humanized) VH: QVQLVQSGAEVKKPGASVKVSCKASGYTFTNYGMNWVRQAPGQGLEWMGWINTYSGVPTYAGDFKGRFTFTLDTSTSTAYMELSSLRSEDTAVYYCARRGYYGRRYFDVWGKGTTVTVSS VL: EIVMTQSPATLSVSPGERATLSCKASQSVDYDVDSYMHWYQQKPGQAPRLLIYAASNLASGIPARFSGSGSGTEFTLTISSLQSEDFAVYYCQQTIEDPPTFGGGTKVEIK | Kd [13]: 0.3 nM; koff [13]: 4.8e-05 s⁻¹; kon [13]: 160000 M⁻¹ s⁻¹ |
